Data: article PMC3269305 (Journal of Molecular Biology, 2011)

Biological target: human eukaryotic translation initiation factor eIF4E (human, UniProt P06730 1-217)
Assay: crystal structure

human eukaryotic translation initiation factor eIF4E, sequence (P06730 whole entry): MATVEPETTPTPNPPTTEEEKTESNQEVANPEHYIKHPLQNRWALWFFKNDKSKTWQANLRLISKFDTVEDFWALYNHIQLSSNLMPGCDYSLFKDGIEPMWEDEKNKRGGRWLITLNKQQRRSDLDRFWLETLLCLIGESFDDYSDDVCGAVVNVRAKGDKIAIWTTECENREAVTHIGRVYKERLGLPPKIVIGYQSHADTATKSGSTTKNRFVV

binding result: binds
B1: 4EBP1 peptide (eIF4E binding site of human 4EBP1, residues 47-66) (peptide)
peptide: PGGTRIIYDRKFLMECRNSP
